Key:
Assay in all cases: cell-based or functional assay
[1] = molecular target: Env of HIV-1 strain 251-18 (HIV-1)
[2] = molecular target: Env of HIV-1 strain REJO4541.67 (HIV-1)
[3] = molecular target: Env of HIV-1 strain ZM53M.PB12 (HIV-1)
[4] = molecular target: Env of HIV-1 strain H086.8 (HIV-1)
[5] = molecular target: Env of HIV-1 strain 3365.v2.c20 (HIV-1)
[6] = molecular target: Env of HIV-1 strain R1166.c1 (HIV-1)
Env of MuLV = molecular target: Env of MuLV
[7] = molecular target: Env of HIV-1 strain ZM109F.PB4 (HIV-1)
[8] = molecular target: Env of HIV-1 strain X1254_c3 (HIV-1)
[9] = molecular target: Env of HIV-1 strain 3016.v5.c45 (HIV-1)
[10] = molecular target: Env of HIV-1 strain 231965.c1 (HIV-1)
[11] = molecular target: Env of HIV-1 strain 3415.v1.c1 (HIV-1)
[12] = molecular target: Env of HIV-1 strain PVO.4 (HIV-1)
[13] = molecular target: Env of HIV-1 strain 250-4 (HIV-1)
[14] = molecular target: Env of HIV-1 strain YU2.DG (HIV-1)
[15] = molecular target: Env of HIV-1 strain Du172.17 (HIV-1)

Binder	neutralization IC50 [1] [µg/mL]	neutralization IC50 [2] [µg/mL]	neutralization IC50 [3] [µg/mL]	neutralization IC50 [4] [µg/mL]	neutralization IC50 [5] [µg/mL]	neutralization IC50 [6] [µg/mL]	neutralization IC50 (Env of MuLV) [µg/mL]	neutralization IC50 [7] [µg/mL]	neutralization IC50 [8] [µg/mL]	neutralization IC50 [9] [µg/mL]	neutralization IC50 [10] [µg/mL]	neutralization IC50 [11] [µg/mL]	neutralization IC50 [12] [µg/mL]	neutralization IC50 [13] [µg/mL]	neutralization IC50 [14] [µg/mL]	neutralization IC50 [15] [µg/mL]
γ52κ18 (antibody, V domains shown) VH: QIHLVQSGTEVKKPGSSVTVSCKAYGVNTFGLYAVNWVRQAPGQSLEYIGQIWRWKSSASHHFRGRVLISAVDLTGSSPPISSLEIKNLTSDDTAVYFCTTTSTYDRWSGLHHDGVMAFSSWGQGTLISVSA VL: DIQMTQSPSTLSASVGDTVRISCRASQSITGGWLAWYHQRPGKAPRLLIYRGSRLLGGVPSRFSGSAAGADFTLTIANLQAEDFGTFYCQQYDTYPGTFGQGTKVEVKR	0.116	2.13	> 15	0.464	> 15	1.35	> 15	> 15	1.57	0.129	0.284	> 15	0.081	> 15	0.265	> 15
γ46κ61 (antibody, V domains shown) VH: QIHLVQSGTEVKKPGSSVTVSCKAYGVNTFGLYAVNWVRQAPGQGLEYIGQIWRWKSSASHHFRGRVLISAVDLTGSSPPISSLEIKNVTSDDTAVYFCTTTSTYDKWSGLHHDGVVAFSSWGQGTLISVSA VL: DIQMTQSPSTLSASIGDTVRISCRASQSITGNWVAWYHQRPGKAPRLLIYRGAALLGGVPSRFSGSAAGTDFTLTIGNLQAEDFGTFYCQQYDTYPGTFGQGTKVEVKR	1.84	0.378	27.5	0.584	> 15	2.58	> 15	> 15	4.46	0.383	1.58	> 15	0.244	> 15	0.918	26.1
γ15κ61 (antibody, V domains shown) VH: QIHLVQSGTEVKKPGSSVTVSCKAYGVNTFGLYAVNWVRQAPGQSLEYIGQIWRWKSSASHHFRGRVIISAVDLTGSSPPISSLEIKNLTSDDTAVYFCTTASTYDKWSGLHHDGVMAFSSWGQGTLISVSA VL: DIQMTQSPSTLSASIGDTVRISCRASQSITGNWVAWYHQRPGKAPRLLIYRGAALLGGVPSRFSGSAAGTDFTLTIGNLQAEDFGTFYCQQYDTYPGTFGQGTKVEVKR	4.66	2.03	> 15	> 15	> 15	6.55	> 15	> 15	10.9	1.21	5.23	> 15	1.23	> 15	3.44	> 15
γ44κ61 (antibody, V domains shown) VH: QIHLVQSGTEVKKPGSSVTVSCKAYEVNTFGLYAVNWVRQAPGQSLEYIGQIWRWKSSASHHFRGRVLISAVDLTGSSPPISSLEIKNVTSDDTAVYFCTTTSTHDKWSGLHHDGVMAFSSWGQGTLISVSA VL: DIQMTQSPSTLSASIGDTVRISCRASQSITGNWVAWYHQRPGKAPRLLIYRGAALLGGVPSRFSGSAAGTDFTLTIGNLQAEDFGTFYCQQYDTYPGTFGQGTKVEVKR	> 15	> 15	> 15	> 15	> 15	> 15	> 15	> 15	> 15	> 15	> 15	> 15	> 15	> 15	> 15	> 15
γ20κ19 (antibody, V domains shown) VH: QIHLVQSGTEVKKPGSSVAVSCKAYGVNTFGLYAVNWVRQAPGQSLEYIGQIWRWKSSASHDFRGRVIISAVDLTGSSPPISSLEIKNLTSDDTAVYFCTATSTPDYWSGLHHDGVMAFSSWGQGTLISVSA VL: DIQMTQSPSTLSASVGDTVRISCRASQSITGGWLAWYHQRPGKAPRLLIYRGSRLLGGVPSRFSGSAAGTGFTLTIANLQAEDFGTFYCQQYDTYPGTFGQGTKVEVKR	> 15	> 15	> 15	> 15	> 15	> 15	> 15	> 15	2.99	> 15	> 15	> 15	> 15	> 15	> 15	> 15
γ59κ18 (antibody, V domains shown) VH: QIHLVQSGTEVKKPGSSVTVSCKAYGVNTFGLYAVNWVRQAPGQGLEYIGQIWRWKSSASHHFRGRVLISAVDLTGSSPPISSLEIKNVTSDDTAVYFCTTTSTYDEWSDLHHDGVMAFSSWGQGTLISVSA VL: DIQMTQSPSTLSASVGDTVRISCRASQSITGGWLAWYHQRPGKAPRLLIYRGSRLLGGVPSRFSGSAAGADFTLTIANLQAEDFGTFYCQQYDTYPGTFGQGTKVEVKR	25	1.23	> 15	> 15	> 15	11.7	> 15	> 15	4.07	> 15	> 15	> 15	> 15	> 15	7.71	> 15
γ52κ61 (antibody, V domains shown) VH: QIHLVQSGTEVKKPGSSVTVSCKAYGVNTFGLYAVNWVRQAPGQSLEYIGQIWRWKSSASHHFRGRVLISAVDLTGSSPPISSLEIKNLTSDDTAVYFCTTTSTYDRWSGLHHDGVMAFSSWGQGTLISVSA VL: DIQMTQSPSTLSASIGDTVRISCRASQSITGNWVAWYHQRPGKAPRLLIYRGAALLGGVPSRFSGSAAGTDFTLTIGNLQAEDFGTFYCQQYDTYPGTFGQGTKVEVKR	0.273	0.115	8.44	0.242	> 15	1.64	> 15	> 15	2.57	0.182	0.516	0.681	0.078	> 15	0.408	7.28

— patent US20180171001A1
